In patent US20140342037A1, “NOVEL PREBIOTICS” (DSM IP ASSETS B.V., priority 2007, published 2014):
One block for each molecule: values may come before it.

Tests used:
[1] = cited from earlier work
[2] = Proteolytic (endo-protease) activity on substrates ZAAXpNA; assay type: biochemical; conditions: purified enzyme preparation
[3] = system: κ-casein in milk and GMP-protein in whey; experiment: Liberation of free sialic acid from milk and whey by sialidase (RP-HPLC, DMB labelling); assay type: biochemical; conditions: milk and whey incubated with sialidase ZJW 0.4 U/ml at room temperature (20-21° C.)
Excerpt: Free sialic acid can be analyzed by means of reverse-phase HPLC, using fluorescence detection with excitation at 310 nm and emission 448 nm after labelling with DMB compound. This method was recently described in literature (M. J. Martin et al Anal. Bional. Chem., 2007, 387, 2943-29-49) and allowed fast and accurate determination of free sialic contents in samples.
Milk was reconstituted by using NILAC low heat skim milk powder (NIZO, The Netherlands); whey was obtained from a local cheddar making facility. The milk and whey samples were treated as follows: milk and whey was incubated separately with sialidase ZJW (0.4 U/ml) at room temperature (20-21° C.) and the reaction was terminated at different moments of time by heating the samples in water bath at 95° C. for 5 minutes. A series of several sialidase ZJW concentrations and incubation times were performed. The samples used for HPLC analysis need to be free from proteins. Therefore, samples were filtered with a Nanosep ultra filtration Eppendorff (10 KD) using centrifugation for 15 minutes at 14000 g. After centrifugation, the free protein supernatant was collected and diluted 100 times with milliQ water in order to measure the sialic acid in a proper range of concentrations (measuring range using RP HPLC method is 5 fmol-5 nmol of sialic acid). […]

Molecule: CC(=O)N[C@H]1[C@H]([C@H](O)[C@H](O)CO)OC(O)(C(=O)O)C[C@@H]1O (stereo partly shown) [Sialic acids, N-acetylneuraminic acid]
pKa [1]: around 2.2

free sialic acid levels (concentration) ([3]; after 4 hours): approximately 220 mg/L | levels of free sialic acid ([3]; after 20 hours of incubation): 250 mg/L
B1: sialidase ZJW: secreted fungal sialidase from Penicillium chrysogenum (SEQ ID NO: 3), overexpressed in Aspergillus niger (protein, listed as Penicillium chrysogenum)
chain: MLSSLMYLARECSILRAISLCAILAVATPAASASVTAKHTLATNGKGLFPQYRIVALASLGNGVLLASYDGRPDGGDSPSPNSILQRRSTDGGKTWGNPTYIARGQPASSTLQQYGFSDPSYVVDSGTGKVFNFHVFSKNQGFLNSEIGNDDTDLNIVSAEVSVSTDGGLSWTTDPDHESSLPPVASADVANVGGITGMFASSGEGIQLKYGKHAGRLVQQFLGKVIQSDGSKVSQAYSVYSDDGGAIWKMGKVIGTGMDENKVVELSNGNLMLNSRPSDGSGYRKVATSTDGGETWSTPASETQLPDPGNNGAITRMYPDAAHGSANAKILLFTNANSKTSRSNGTIRYSCDDGKTWSSGAVFQSGSMSYSTVTALGDDRFGIFYEGDSNDLVYIEVSKDFIGVSC
proteolytic activity on a series of substrates ZAAXpNA [2]: does not show proteolytic activity
